Measured values from article PMC2651774.

Molecular target: GST-CR3 (HAdV-5 E1A residues 139–204 fused to GST) (human adenovirus type 5 (HAdV-5)) (UniProt P03255)
Experiment: pull-down

Full-length, purified FLAG-tagged CBP (CREB-binding protein), Q92793 1-2442 (natural protein), sequence (Q92793 whole entry): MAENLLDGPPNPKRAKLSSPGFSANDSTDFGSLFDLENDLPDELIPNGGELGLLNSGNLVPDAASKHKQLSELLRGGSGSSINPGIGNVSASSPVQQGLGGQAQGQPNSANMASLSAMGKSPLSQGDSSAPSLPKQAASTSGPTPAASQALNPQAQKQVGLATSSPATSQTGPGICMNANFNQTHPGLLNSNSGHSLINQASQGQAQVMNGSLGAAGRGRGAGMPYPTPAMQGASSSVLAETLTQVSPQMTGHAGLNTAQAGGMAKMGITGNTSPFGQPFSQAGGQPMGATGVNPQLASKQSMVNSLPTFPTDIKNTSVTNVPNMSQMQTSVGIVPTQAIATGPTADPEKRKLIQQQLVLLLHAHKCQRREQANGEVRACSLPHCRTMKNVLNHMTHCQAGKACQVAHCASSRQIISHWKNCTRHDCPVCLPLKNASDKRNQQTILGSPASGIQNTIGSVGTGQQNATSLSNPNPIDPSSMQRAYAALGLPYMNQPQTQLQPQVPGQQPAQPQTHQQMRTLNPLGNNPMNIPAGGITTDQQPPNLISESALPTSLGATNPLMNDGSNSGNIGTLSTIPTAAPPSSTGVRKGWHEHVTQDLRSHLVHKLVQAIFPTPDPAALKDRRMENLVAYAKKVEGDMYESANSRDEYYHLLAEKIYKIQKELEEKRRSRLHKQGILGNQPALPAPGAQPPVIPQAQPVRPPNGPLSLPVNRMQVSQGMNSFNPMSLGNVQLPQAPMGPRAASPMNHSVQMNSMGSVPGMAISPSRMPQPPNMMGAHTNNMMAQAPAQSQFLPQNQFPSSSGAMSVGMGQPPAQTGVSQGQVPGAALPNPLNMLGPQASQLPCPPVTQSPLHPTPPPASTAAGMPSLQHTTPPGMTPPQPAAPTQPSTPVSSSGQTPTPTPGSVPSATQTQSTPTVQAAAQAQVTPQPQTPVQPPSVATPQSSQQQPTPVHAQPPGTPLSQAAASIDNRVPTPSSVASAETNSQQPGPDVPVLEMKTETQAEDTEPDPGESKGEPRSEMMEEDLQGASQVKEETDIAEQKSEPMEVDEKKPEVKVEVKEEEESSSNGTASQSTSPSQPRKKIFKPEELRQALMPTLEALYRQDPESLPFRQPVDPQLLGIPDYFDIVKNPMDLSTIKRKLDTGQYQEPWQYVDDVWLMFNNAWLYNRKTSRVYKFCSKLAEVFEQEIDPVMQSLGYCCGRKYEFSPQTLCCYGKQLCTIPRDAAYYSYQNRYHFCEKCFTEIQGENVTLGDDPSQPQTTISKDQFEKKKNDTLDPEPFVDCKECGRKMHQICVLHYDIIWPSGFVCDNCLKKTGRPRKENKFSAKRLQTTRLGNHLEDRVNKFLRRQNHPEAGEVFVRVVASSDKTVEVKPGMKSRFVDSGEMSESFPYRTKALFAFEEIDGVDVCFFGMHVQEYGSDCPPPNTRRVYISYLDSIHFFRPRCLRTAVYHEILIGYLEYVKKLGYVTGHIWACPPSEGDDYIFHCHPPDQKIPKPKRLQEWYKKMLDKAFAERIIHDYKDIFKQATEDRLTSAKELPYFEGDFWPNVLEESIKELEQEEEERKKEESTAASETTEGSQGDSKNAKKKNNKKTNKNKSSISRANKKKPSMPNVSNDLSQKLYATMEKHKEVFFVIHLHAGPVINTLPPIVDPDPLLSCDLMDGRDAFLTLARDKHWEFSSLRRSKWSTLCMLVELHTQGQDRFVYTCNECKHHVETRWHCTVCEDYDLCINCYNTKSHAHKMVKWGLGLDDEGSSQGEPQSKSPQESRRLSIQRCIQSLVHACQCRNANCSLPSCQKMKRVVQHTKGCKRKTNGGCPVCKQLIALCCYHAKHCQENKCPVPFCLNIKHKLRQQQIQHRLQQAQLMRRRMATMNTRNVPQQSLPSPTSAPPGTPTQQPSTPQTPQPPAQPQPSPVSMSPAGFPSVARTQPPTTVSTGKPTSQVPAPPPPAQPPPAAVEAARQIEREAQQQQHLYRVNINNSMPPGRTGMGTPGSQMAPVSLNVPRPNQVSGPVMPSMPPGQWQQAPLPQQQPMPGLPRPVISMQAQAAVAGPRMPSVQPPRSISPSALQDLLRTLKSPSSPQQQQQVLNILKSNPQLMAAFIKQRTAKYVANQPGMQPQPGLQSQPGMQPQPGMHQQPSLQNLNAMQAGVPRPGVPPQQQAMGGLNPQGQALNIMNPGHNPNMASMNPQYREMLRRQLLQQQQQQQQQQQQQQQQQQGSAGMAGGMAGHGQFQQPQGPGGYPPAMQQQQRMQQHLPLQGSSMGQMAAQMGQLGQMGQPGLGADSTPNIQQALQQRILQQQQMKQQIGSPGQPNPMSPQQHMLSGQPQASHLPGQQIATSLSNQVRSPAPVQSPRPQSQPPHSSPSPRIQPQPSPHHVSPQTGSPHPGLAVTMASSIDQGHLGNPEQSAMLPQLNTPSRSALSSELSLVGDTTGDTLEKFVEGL
GST-CR3 (HAdV-5 E1A residues 139–204 fused to GST) (human adenovirus type 5 (HAdV-5)), sequence (P03255 139-204): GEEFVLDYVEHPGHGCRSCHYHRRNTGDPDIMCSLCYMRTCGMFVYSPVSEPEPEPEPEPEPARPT

“Full-length, purified FLAG-tagged CBP (CREB-binding protein), Q92793 1-2442 (natural protein)” was tested, and the reduction of the interaction on addition of HeLa total cellular extract was 50%.
